The text below walks through data of patent US20230257444A1, “FUSION PROTEIN AND COMBINATIONS THEREOF” (Agency for Science, Technology and Research, priority 2020, published 2023).

Like-named read-outs stand apart in the source and are kept apart here.

One series deals with SC5314 Candida albicans. Kind of series: In vitro combination therapy checkerboard dilution assay (Amphotericin B & hDectin1-Fc) with human primary macrophages. Format: cell-based. Particulars: between 0 μg/ml and 100 µg/ml hDectin1-Fc, 24 hours.
Details of series [1]: species or system Balb/c mice. The following applies: mouse, in vivo, ip. How it is done:
9 week old female Balb/c mice (InVivos, Singapore) were injected intraperitoneally with 0.5, 1, 2 or 4 mg hDectin1-Fc in groups of 3. Blood was sampled from the tail at time 0, 5, 10, 15, 30 mins and 1, 2, 4, 8 hours thereafter followed by daily sampling with Microvette® ([…], Nümbrecht, Germany) for 20 days. The respective blood samples were allowed to clot and centrifuged at 2000 g and the blood serum collected. The blood serum was diluted accordingly and the concentration of hDectin1-Fc was tested with Human IgG ELISA Antibody Pair Kit and developed with pNPP ELISA Substrate ([…] Technologies, Vancouver, Canada). The plates were read on PLATE reader and the data analysed for hDectin1-Fc pharmacokinetic parameters with open source Microsoft Excel add-in PKSolver (China Pharmaceutical University, Nanjing, China).
The pharmacokinetic parameters of hDectin1-Fc at different doses (4 mg, 2 mg, 1 mg and 0.5 mg) were determined by administering a single bolus intraperitoneal injection and sampling blood serum daily (FIG. 14). The daily concentration over 20 days was measured by ELISA and the results analysed with PKSolver to determine the pharmacokinetic parameters (Table 2). […] The lowest dose of 0.5 mg has a half-life and MRT lower than the 2 mg and 1 mg dose and its peak concentration (Cmax) is at 10 hours instead of 2 hours like the other doses. This observed outcome for the 0.5 mg dose is likely to arise from the slow transfer of hDectin1-Fc from the intraperitoneal space of the mouse into its bloodstream due to the lower concentration gradient and stronger role of excretion over distribution. The duration of the MRT and the half-life is a reflection of the presence of the protective effects of hDectin1-Fc in the body of the mice. The optimal dose with the longest MRT and half-life is approximately 1 mg. The general take away from the pharmacokinetic study are: (i) high doses result in rapid excretion of the drug, (ii) peak concentration occurs at 2 hours (iii) lower doses have a longer half-life and mean residence time appropriate for passive immunization.

Protocol for SC5314 Candida albicans: Human peripheral blood CD14+ monocytes were cultured at 1×10^6 cells/mL in 5 mL of ImmunoCult™-SF Macrophage Differentiation Medium with Human Recombinant M-CSF at 50 ng/ml in a T-25 flask at 37° C. in a 5% CO2 incubator. On Day 4, 2.5 mL of fresh ImmunoCult™-SF Macrophage Differentiation Medium was added to the flask. On Day 6, M1 activation was initiated with the addition of 50 ng/mL IFN-γ. On Day 8, the macrophages were treated with ACCUTASE and scrapped from the flask. The cells were centrifuged and resuspended in RPMI medium with 10% FBS and seeded into 96 well plates at 10^5 cells/well. The co-culture assay involves the addition of 10^5 cells/well of SC5314 Candida albicans cells to wells containing 10^5 cells/well of human primary macrophages cells with final concentration of hDectin1-Fc at 0, 1, 10 or 100 g/ml and varying concentration of Amphotericin B in a checkerboard dilution assay format in a 96 well plate. The assay was incubated for 24 hr at 37° C. in a 5% CO2 atmosphere incubator and the MIC and MFC determined visual using a Nikon Eclipse Ti-E inverted microscope.
10′ Candida albicans cells and 10′ human primary macropahges were seeded per well in a checkerboard dilution assay of Amphotericin B with the respective concentration of hDectin1-Fc (0, 10, 100 μg/ml) and incubated for 24 hours at 37° C.

The term Cmax denotes the highest concentration seen after dosing. The term Tmax denotes the time from dosing to the highest level. One may read the t½ as how long it takes for the measured level to halve. In the case of “hDectin1-Fc: soluble dimeric fusion protein: human Dectin-1 receptor polypeptide (aa 73-247) fused to human IgG1 Fc via hinge; SEQ ID NO: 5”, the “reduction in MFC of Amphotericin B” value in the series with SC5314 Candida albicans is listed as ~45%. For the same substance, in series [1] (0.5 mg), the Cl/F is listed as 0.0066 (μg)/(μg/ml)/h, the Cmax was found to be 330 µg/mL, the time of peak concentration (Tmax) is recorded as 10 h and the Vz/F was 0.9495 (μg)/(μg/ml). This substance also showed a t½ in series [1] (0.5 mg) of 100 h. In series [1] (1 mg), the Cl/F was 0.0163 (μg)/(μg/ml)/h, the Cmax amounted to 294 µg/mL, the time to peak (Tmax) came out at 2 h and the Vz/F is listed as 3.4254 (μg)/(μg/ml). The substance further returned a t½ in series [1] (1 mg) of 146 h. Also, in series [1] (2 mg), the Cl/F was 0.0095 (μg)/(μg/ml)/h, the Cmax was determined as 1039 µg/mL, the Tmax worked out at 2 h and the Vz/F is on record as 2.1489 (μg)/(μg/ml). In series [1] (2 mg), this substance gave a t½ of 156 h. For the same substance, in series [1] (4 mg), the Cl/F is listed as 0.0314 (μg)/(μg/ml)/h, the time of peak concentration (Tmax) is on record as 2 h, the Vz/F is given as 3.5008 (μg)/(μg/ml) and the t½ turned out to be 77 h.
